According to paper PMC1669734 (Nucleic Acids Research, 2006):

Target: T1, 35S-MCM (T.acidophilum MCM labeled with 35S-Met) (Thermoplasma acidophilum, UniProt Q9HK10 1-698, 35S-Met)
T1 sequence (looked up): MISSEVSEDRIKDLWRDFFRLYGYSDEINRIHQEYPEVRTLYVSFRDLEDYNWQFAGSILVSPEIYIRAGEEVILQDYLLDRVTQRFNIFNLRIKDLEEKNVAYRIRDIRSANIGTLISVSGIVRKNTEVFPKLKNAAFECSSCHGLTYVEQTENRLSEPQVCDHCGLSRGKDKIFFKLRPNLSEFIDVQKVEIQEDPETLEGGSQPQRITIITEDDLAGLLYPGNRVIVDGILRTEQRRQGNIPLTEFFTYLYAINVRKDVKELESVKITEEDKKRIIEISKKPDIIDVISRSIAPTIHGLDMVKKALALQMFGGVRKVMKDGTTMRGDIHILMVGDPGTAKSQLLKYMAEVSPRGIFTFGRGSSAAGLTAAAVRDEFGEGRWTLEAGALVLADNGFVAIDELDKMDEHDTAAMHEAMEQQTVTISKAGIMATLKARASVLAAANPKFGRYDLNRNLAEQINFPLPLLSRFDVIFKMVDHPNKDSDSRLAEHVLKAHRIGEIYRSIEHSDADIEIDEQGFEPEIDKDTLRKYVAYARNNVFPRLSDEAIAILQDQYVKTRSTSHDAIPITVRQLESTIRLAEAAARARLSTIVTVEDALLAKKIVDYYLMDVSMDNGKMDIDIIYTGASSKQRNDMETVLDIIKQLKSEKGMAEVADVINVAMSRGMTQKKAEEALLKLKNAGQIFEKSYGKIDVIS
Assay: pull-down

B1: T.acidophilum Cdc6-2 (Ta0636), C-terminal six His-tag (natural protein, Thermoplasma acidophilum, UniProt Q9HKG3 1-404, looked up)
chain: MDNPFARFAGTRTIQANLSLLEENYVPDSFPHRENQINEMVTILSSIMRGSRPSNIIVYGKTGTGKTSTTKYVTKMLVEAASNVSVVYVNCEIYDSPYSILVAIANSAGEEKIPELGWPIDRIYRETVERVEKTGKFFIIILDEMDRLIKKNGGDSLYVLLKLMTDVDSVRVSMIGITNDTTVLENIDARIKSRLNQESIVFPPYNASEIRDIISSRLDKVLGPGVVDDTAINLCAAIGAQEHGDARKAIDLMRIAIEIAIRENRNKITENEIYEARERYEMNVLREAISTLPLHSKIVLLSAVVTQEIEPNSVITGEIYENYRRICDDLGFSPLSPRRISDLLTELADYGLLVMDDRNMGKYGRTRSFSVVHQAETIKKYLLEDENLSMFKSSKMPKQTRFDT
binding result: binds
